Laboratory results reported in patent US20130225493A1.

Experiments:
[1] = biological target: FGFR3-IIIc stably expressed on FDCP cells (UniProt P22607); assay: cell-based or functional assay
[2] = biological target: FGFR1 extracellular domain, immobilized (R1-Fc) (UniProt P11362); assay: functional ELISA on immobilized FGFR
[3] = biological target: FGFR2 extracellular domain, immobilized (R2-Fc) (UniProt P21802); assay: functional ELISA on immobilized FGFR
[4] = biological target: FGFR3 extracellular domain, immobilized (R3-Fc) (UniProt P22607); assay: functional ELISA on immobilized FGFR
[5] = biological target: FGFR1 extracellular domain, immobilized (R1-Fc) (UniProt P11362); assay: ELISA: biotinylated ligand on immobilized FGFR-Fc, HRP-streptavidin
[6] = biological target: FGFR2 extracellular domain, immobilized (R2-Fc) (UniProt P21802); assay: as above
[7] = biological target: FGFR3 extracellular domain, immobilized (R3-Fc) (UniProt P22607); assay: as above

FGF-18^Δ51, sequence (O76093 other isoform, or with tags, fused parts or gaps mutant limits assumed): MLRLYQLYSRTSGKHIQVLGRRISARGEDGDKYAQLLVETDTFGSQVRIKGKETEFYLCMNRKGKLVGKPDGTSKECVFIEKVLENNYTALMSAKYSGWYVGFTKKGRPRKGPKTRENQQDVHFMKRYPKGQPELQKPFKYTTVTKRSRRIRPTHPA
FGF-18^Δ31, sequence (O76093 other isoform, or with tags, fused parts or gaps mutant limits assumed): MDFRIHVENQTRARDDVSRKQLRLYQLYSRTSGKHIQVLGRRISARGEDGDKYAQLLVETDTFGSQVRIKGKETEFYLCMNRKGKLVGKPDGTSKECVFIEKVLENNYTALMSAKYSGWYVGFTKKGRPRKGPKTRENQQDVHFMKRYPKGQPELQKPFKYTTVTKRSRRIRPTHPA
FGF-18 (recombinant wild type, mature form without the signal peptide), sequence (O76093 other isoform, or with tags, fused parts or gaps): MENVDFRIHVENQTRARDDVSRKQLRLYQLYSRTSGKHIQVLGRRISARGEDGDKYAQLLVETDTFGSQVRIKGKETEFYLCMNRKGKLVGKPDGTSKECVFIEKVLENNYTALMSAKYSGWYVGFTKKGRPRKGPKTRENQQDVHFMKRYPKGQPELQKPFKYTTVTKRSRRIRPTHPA
FGF-18^Δ37, sequence (O76093 other isoform, or with tags, fused parts or gaps mutant limits assumed): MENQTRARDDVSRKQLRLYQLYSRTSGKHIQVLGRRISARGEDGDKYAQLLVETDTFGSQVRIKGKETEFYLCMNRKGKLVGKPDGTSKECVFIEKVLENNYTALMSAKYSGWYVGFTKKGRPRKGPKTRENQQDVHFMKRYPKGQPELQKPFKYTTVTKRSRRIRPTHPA
FGF-18^Δ33, sequence (O76093 other isoform, or with tags, fused parts or gaps mutant limits assumed): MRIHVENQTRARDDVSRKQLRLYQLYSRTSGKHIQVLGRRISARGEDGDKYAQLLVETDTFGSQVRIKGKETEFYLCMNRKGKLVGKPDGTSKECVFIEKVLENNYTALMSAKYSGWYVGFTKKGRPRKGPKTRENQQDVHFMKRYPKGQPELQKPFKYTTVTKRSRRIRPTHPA
FGFR3-IIIc stably expressed on FDCP cells, sequence (P22607 23-806): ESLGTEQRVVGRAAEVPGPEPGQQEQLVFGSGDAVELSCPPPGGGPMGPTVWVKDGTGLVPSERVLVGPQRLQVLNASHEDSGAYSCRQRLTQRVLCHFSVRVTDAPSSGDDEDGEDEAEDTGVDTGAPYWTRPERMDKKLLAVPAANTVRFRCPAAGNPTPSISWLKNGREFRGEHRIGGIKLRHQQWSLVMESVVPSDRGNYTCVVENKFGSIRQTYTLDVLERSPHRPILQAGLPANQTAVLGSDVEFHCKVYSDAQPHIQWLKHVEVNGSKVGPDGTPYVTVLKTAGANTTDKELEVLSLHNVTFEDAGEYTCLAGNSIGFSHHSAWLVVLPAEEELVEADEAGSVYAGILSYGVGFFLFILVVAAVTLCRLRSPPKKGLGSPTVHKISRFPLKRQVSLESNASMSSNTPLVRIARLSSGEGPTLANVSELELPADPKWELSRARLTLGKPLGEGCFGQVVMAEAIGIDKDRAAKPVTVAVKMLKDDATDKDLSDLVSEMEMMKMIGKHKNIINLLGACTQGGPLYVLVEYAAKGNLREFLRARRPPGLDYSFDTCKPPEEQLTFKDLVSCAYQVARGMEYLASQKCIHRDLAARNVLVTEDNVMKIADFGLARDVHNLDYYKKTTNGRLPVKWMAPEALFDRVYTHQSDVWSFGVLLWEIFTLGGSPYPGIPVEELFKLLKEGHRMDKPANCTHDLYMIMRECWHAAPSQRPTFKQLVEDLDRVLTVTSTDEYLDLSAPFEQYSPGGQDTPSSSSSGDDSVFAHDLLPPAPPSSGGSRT
FGF-18^Δ45, sequence (O76093 other isoform, or with tags, fused parts or gaps mutant limits assumed): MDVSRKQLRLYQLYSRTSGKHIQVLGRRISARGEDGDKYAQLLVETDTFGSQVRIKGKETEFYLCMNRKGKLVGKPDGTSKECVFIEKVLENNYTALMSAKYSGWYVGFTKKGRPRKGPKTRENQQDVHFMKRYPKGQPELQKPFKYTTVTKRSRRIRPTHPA

Row | EC50 scores of FGF ligands in cell proliferation of FDCPR3 [1] [ng/mL] | EC50 [2] [ng/mL] | EC50 [3] [ng/mL] | EC50 [4] [ng/mL] | EC50 [5] [ng/mL] | EC50 [6] [ng/mL] | EC50 [7] [ng/mL] | Substance
1 | 1.19 | – | – | – | – | – | – | FGF-2 wild type (from UniProt P09038 134-288) (ligand)
2 | – | 22.8 | 8.76 | 6.59 | 28.2 | 9.51 | 5.04 | FGF-18 (recombinant wild type, mature form without the signal peptide) (from UniProt O76093 29-207) (ligand)
3 | – | 24.4 | 11.2 | 8.55 | – | – | – | FGF-18^Δ31 (from UniProt O76093 32-207) (ligand)
4 | – | – | – | 8.27 | – | – | – | FGF-18^Δ33 (from UniProt O76093 34-207) (ligand)
5 | – | – | – | 9.75 | – | – | 5.94 | FGF-18^Δ37 (from UniProt O76093 38-207) (ligand)
6 | – | – | – | – | – | – | 9.16 | FGF-18^Δ45 (from UniProt O76093 46-207) (ligand)
7 | – | 41.9 | 43.5 | 9.99 | – | – | 10.2 | FGF-18^Δ51 (from UniProt O76093 52-207) (ligand)
